Measurements published in PMC11434109, “VIK‐Mediated Auxin Signaling Regulates Lateral Root Development in Arabidopsis” (Advanced Science, 2024).

Biological target: T1, His-VIK (Arabidopsis, UniProt Q9XI87 1-438)
T1 construct: VIK, Arabidopsis, AT1G14000, N-terminal 6 x histidine tag and a full-length VIK protein; also called recombinant His-VIK; source: E. coli BL21 (DE3), purified (Ni NTA beads); not shown: His6, N-terminal, kept
T1 sequence (looked up): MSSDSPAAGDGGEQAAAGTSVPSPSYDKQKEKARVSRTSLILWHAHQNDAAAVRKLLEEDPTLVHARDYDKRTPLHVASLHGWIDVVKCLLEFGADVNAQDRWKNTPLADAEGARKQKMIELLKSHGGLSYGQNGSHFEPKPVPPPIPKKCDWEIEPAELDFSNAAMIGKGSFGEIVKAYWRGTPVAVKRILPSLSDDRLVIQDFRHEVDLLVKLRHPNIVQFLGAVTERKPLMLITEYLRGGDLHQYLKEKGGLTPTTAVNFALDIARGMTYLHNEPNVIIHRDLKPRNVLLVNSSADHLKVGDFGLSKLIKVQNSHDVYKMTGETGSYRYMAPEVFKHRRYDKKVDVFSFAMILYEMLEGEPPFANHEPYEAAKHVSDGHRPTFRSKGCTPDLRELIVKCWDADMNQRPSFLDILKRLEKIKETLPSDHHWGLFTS
Assay: pull-down; GST-LBD18 immobilised on Glutathione Beads, incubated with His-VIK or His-MBP at 4 °C for 4 h; washed five times with 1 x PBS; blot with anti-His and anti-GST
Details: both partners purified

binding result: binds
B1: GST-LBD18 (natural protein, Arabidopsis, UniProt O22131 1-262, looked up)
chain: MSGGGNTITAVGGGGGGCGGGGSSGGGGSSGGGGGGPCGACKFLRRKCVPGCIFAPYFDSEQGSAYFAAVHKVFGASNVSKLLLHIPVHRRSDAVVTICYEAQARIRDPIYGCVAHIFALQQQVVNLQAEVSYLQAHLASLELPQPQTRPQPMPQPQPLFFTPPPPLAITDLPASVSPLPSTYDLASIFDQTTSSSAWATQQRRFIDPRHQYGVSSSSSSVAVGLGGENSHDLQALAHELLHRQGSPPPAATDHSPSRTMSR
notes: the words full length are not used for this construct; also called recombinant GST-LBD18; source: E. coli BL21 (DE3), purified (Glutathione Beads); not shown: GST, N-terminal, kept
